Earlier results in PMC1562422.

Tests used:
[1] = biological target: IL2 receptor γ chain (Homo sapiens) (UniProt P31785)
[2] = biological target: IL2 receptor β chain (Homo sapiens) (UniProt P14784); experiment: SPR
[3] = biological target: IL2 receptor β chain (Homo sapiens) (UniProt P14784); experiment: ITC
[4] = biological target: IL2 receptor α chain (Homo sapiens) (UniProt P01589); experiment: ITC

UniProt P14784, sequence (P14784 27-240): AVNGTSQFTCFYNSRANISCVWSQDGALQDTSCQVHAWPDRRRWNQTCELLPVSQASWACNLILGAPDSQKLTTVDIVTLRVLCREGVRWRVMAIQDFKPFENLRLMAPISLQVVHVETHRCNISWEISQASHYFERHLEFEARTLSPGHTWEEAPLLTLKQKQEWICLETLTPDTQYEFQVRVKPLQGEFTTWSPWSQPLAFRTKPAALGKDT
IL2, sequence (P60568 21-153): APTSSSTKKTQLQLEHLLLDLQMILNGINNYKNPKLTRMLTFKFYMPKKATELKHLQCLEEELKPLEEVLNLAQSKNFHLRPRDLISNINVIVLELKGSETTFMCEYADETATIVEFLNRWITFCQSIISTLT
UniProt P31785, sequence (P31785 23-262): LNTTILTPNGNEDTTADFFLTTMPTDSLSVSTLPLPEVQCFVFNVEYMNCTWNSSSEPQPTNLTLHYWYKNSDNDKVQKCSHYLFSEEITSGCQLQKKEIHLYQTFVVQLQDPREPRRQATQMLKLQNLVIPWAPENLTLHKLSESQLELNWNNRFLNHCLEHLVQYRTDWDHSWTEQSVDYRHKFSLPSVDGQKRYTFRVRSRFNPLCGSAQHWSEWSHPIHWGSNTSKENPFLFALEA

For IL2 (from UniProt P60568), the Kd [1] is given as > 700000 nM, the Kd [2] is given as 450 nM and the Kd [3] is given as 144 nM. The Kd [4] was 10 nM.

In the case of “IL2 receptor α chain (from UniProt P01589)”, the Kd [3] is listed as 278 nM.
